Reference: patent publication US20180346523A1

Molecular target: NLS-PpsR2-VP16 (Rhodopseudomonas palustris; H. simplex)
Assay: cell-based or functional assay

BphP1-mCherry-TetR (from UniProt P04483 1-207)
EGFP signal, illuminated over dark-treated cells (pTRE-Tight-EGFP reporter, flow cytometry): > 27 fold
Rluc8 activation with 740 nm light against 470 nm light in cultured HeLa cells: 18 fold
Rluc8 light-to-dark signal ratio in mouse liver after hydrodynamic transfection (pKA-207I10), 48 h: 5.7 fold
Rluc8 signal, 740 nm illuminated mice over mice in darkness, HeLa cells injected subcutaneously, 48 h: 32 fold
SEAP level, 740 nm light over darkness, after 12 h: 3 fold
SEAP level, 740 nm light over darkness, after 48 h (pTRE-Tight-SEAP reporter, HeLa): 40 fold
SEAP reporter expression against the PhyB-PIF6 system, same reporter plasmid: 2 fold
decrease of SEAP production by 12 h of 636 nm light after 12 h of 740 nm light, against cells kept in darkness: 2.3 fold
half-time of SEAP accumulation under 740 nm light: 18 h
rate of SEAP decrease in darkness after 636 nm illumination, against darkness alone: 2 fold
